From article PMC4627082, “MCM ring hexamerization is a prerequisite for DNA-binding” (Nucleic Acids Research, 2015) come the findings set out here.

The target of data set [1] is PfMCMN-WT (residues 1–256), amino-terminal domain of Pyrococcus furiosus MCM (Pyrococcus furiosus) (UniProt Q8U3I4). Nature of the data set: AUC; sedimentation velocity, 20°C, 50 000 rpm, 20 mM HEPES pH 7.6, 200 mM NaCl, 5 mM β-mercaptoethanol, interference and absorbance optics, c(s) distributions; isotherm of signal-average s-values fitted to monomer-hexamer self-association; some WT samples with 40-mer oligo-dT ssDNA (T40).

Data set [2] shares this target. In words: AUC; sedimentation equilibrium of apoproteins, 12-51 μM, 20°C, 20 mM HEPES pH 7.6, 200 mM NaCl, 5 mM β-mercaptoethanol, absorbance 280 nm; reversible monomer-hexamer (WT, hexamer to monomers) or monomer-pentamer (βT, pentamer to monomers) model; the constant is the protein concentration where half of the protein is monomeric.
For data set [3] the target is unchanged. In words: AUC; sedimentation velocity at the highest PfMCMN-WT concentration (350 μM), co-interpreted with sedimentation equilibrium; 20°C, 20 mM HEPES pH 7.6, 200 mM NaCl, 5 mM β-mercaptoethanol.
Data set [4] deals with the molecule itself. In words: SEC; final size-exclusion chromatography step of purification; elution volume compared with PfMCMN-WT. On the technique in general: SEC sorts molecules by how far they enter the pores of the column.
Data set [5] deals with the molecule itself. Nature of the data set: AUC; sedimentation equilibrium of apoproteins, 12-51 μM, 20°C, 20 mM HEPES pH 7.6, 200 mM NaCl, 5 mM β-mercaptoethanol, absorbance 280 nm; reversible monomer-hexamer (WT, hexamer to monomers) or monomer-pentamer (βT, pentamer to monomers) model; the constant is the protein concentration where half of the protein is monomeric.
Data set [6] deals with the molecule itself. Nature of the data set: AUC; sedimentation velocity, 20°C, 50 000 rpm, 20 mM HEPES pH 7.6, 200 mM NaCl, 5 mM β-mercaptoethanol, interference and absorbance optics, c(s) distributions; isotherm of signal-average s-values fitted to monomer-hexamer self-association; some WT samples with 40-mer oligo-dT ssDNA (T40).

The Kd is the constant that tells how readily two partners part at equilibrium. Low readings indicate higher affinity, high ones lower affinity. One may read the stoichiometry N as the number of molecules, sites or subunits per partner or assembly. For the molecule “PfMCMN-WT (residues 1–256), amino-terminal domain of Pyrococcus furiosus MCM (from UniProt Q8U3I4 1-256) (domain or fragment)”, in data set [1], the Kd came to 58 µM, the percent hexamer at 15 μM with T40 ssDNA was 55%, the percent hexamer at 38 μM with T40 ssDNA was determined as 72% and the percent hexamer at 45 μM with T40 ssDNA turned out to be 72%. Moreover, in data set [1], the percent hexamer at 128 μM with T40 ssDNA is 82%, the percent of protein in the hexameric fraction at 76 μM came to 37%, the percent of protein in the hexameric fraction at 180 μM worked out at 60% and the stoichiometry N turned out to be 6. In data set [2], this molecule displayed a Kd of 60 µM. In data set [3], this molecule had a stoichiometry N of 12.

B1: PfMCMN-βT (1–256; K233A; R234A; K236A) (domain or fragment, Pyrococcus furiosus, UniProt Q8U3I4 1-256, looked up)
chain: MDREEMIERFANFLREYTDEDGNPVYRGKITDLLTITPKRSVAIDWMHLNSFDSELAHEVIENPEEGISAAEDAIQIVLREDFQREDVGKIHARFYNLPETLMVKDIGAEHINKLIQVEGIVTRVGEIKPFVSVAVFVCKDCGHEMIVPQKPYESLEKVKKCEQCGSKNIELDVNKSSFVNFQSFRIQDRPETLKGGEMPRFIDGILLDDIVDVALPGDRVIVTGILRVVLEAAEATPIFRKILEVNHIEPVSKEI
notes: Minichromosome Maintenance (MCM) protein of Pyrococcus furiosus, N-terminal domain, residues 1-256, with three alanine mutations of the β-turn; Made by site-directed mutagenesis of the PfMCMN-WT SUMO-fusion construct; SUMO removed by Ulp1; also called β-turn triple mutant; pCF076.1
For the molecule B1, the “stoichiometry N” value in data set [4] was about 3; in data set [6] it was 5. In data set [5], this molecule gave a Kd of 8 µM.
